Assay results: patent publication US20070065444A1 (Amgen, published 2007)
Positions count from the first letter of the chain named. In names and notes the source's numbering stands. Like-named read-outs stand apart in the source and are kept apart here. One block for each binder: values may come before it.

What was measured:
[1] = biological target: T1, cynomologus ALK-1/Fc fusion protein (cynomolgus monkey, UniProt Q5RAN0 22-118 (Pongo abelii entry)); assay: SPR (BIAcore 3000), cALK-1/Fc immobilized, antibody as analyte
T1 construct: also called cALK-1/Fc; not shown: Fc part and any linker not described
T1 chain: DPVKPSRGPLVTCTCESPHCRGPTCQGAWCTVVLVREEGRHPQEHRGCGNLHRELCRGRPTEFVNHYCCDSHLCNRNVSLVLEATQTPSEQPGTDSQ

[2] = biological target: T2, recombinant human ALK-1/Fc fusion protein (human, UniProt P37023 22-118); assay: SPR (BIAcore 3000), hALK-1/Fc immobilized, antibody as analyte
T2 construct: range 22-118; Disulfide-linked homodimer; also called hALK-1/Fc; recombinant human ALK-1/Fc chimera; not shown: Fc region of human IgG

[3] = biological target: T3, human ALK-1 (full-length, cell surface) (human, UniProt P37023 22-503); assay: cell-based or functional assay
[4] = biological target: T4, Cynomolgus monkey ALK-1 (full-length, cell surface) (cynomolgus monkey, UniProt P37023 22-503 (human entry)); assay: FACS on 293 cells overexpressing Cyno ALK-1
T4 construct: also called Cyno ALK-1
T4 chain: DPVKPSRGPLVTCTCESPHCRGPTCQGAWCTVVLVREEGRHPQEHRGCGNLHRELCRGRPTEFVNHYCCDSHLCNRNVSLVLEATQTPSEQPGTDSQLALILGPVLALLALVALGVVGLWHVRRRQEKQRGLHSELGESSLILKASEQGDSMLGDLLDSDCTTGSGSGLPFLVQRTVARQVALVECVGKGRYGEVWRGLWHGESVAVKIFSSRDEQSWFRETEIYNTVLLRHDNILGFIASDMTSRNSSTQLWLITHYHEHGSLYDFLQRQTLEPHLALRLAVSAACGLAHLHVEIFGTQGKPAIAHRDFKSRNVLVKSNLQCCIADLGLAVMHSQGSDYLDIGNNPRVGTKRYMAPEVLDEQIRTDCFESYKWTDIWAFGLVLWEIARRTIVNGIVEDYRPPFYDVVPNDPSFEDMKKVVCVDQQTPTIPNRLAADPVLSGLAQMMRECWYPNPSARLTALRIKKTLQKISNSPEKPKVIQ

[5] = biological target: T3, human ALK-1 (full-length, cell surface); assay: FACS on 293 cells overexpressing human ALK-1
monomeric ALK-ECD = biological target: T5, monomeric ALK-ECD (human, UniProt P37023 22-118); assay: SPR (BIAcore 3000), antibody immobilized, monomeric ALK-ECD as analyte (Example 8, different ECD preparation)
T5 construct: also called ALK-1 ECD His-Tag protein; Human ALK-1 ECD His-Tag Protein

[6] = biological target: T4, Cynomolgus monkey ALK-1 (full-length, …); assay: FACS, 293 stable cells overexpressing full-length Cyno ALK-1, anti-human kappa R-PE secondary, geometric mean against mAb concentration
[7] = biological target: T3, human ALK-1 (full-length, cell surface); assay: FACS, 293 stable cells overexpressing full-length human ALK-1, anti-human kappa R-PE secondary, geometric mean against mAb concentration
[8] = biological target: T4, Cynomolgus monkey ALK-1 (full-length, …); assay: FACS on 293 cells overexpressing Cyno ALK-1
[9] = biological target: T2, recombinant human ALK-1/Fc fusion …; assay: SPR (BIAcore 3000) cross-competition on immobilized human ALK-1/Fc chimera

Avidity [1]: 19 pM
Avidity [2]: 9.6 pM
B1: 4.62.1 (antibody, V domains shown)
VH: QVQLQESGPGLVKPSQTLSLTCTVSGGSISSGDYYWNWIRQHPGKGLEWIGYIYYSGSTYYNPSLKSRVTISVDTSKNQFSLKLSSVTAADTAVYYCARESTDGMDVWGQGTTVTVSS
VL: not shown
notes: Human IgG2 kappa antibody from a hybridoma

ID1 Taqman IC50 [3]: 100 nM
pSmad1 Western IC50 nM [3]: 82 nM
Kd [4]: 3.1 nM
Kd [5]: 7.6 nM
B2: 4.24.1 (antibody, human IgG2, V domains shown)
VH: B1 VH with G32N
VL: ENVLTQSPGTLSLSPGERATLSCRASQSVSSNYLAWYQQKPGQAPRLLIYGASSGATGIPDRFSGSGSGTDFTLTISRLEPEDFAVYYCQHYGSSPITFGQGTRLEIK
notes: as for B1

ID1 Taqman IC50 [3]: 21 nM
pSmad1 Western IC50 nM [3]: 35 nM
Kd [4]: 3.8 nM
Kd [5]: 6.4 nM
Kd (monomeric ALK-ECD): 0.8 nM
koff (monomeric ALK-ECD): 2.5e-05 s⁻¹
kon (monomeric ALK-ECD): 32000 M⁻¹ s⁻¹
B3: 4.72.1 (antibody, human IgG2, V domains shown)
VH: B1 VH with D33E, N37S, Y54F, V73L
VL: B2 VL with N2I, N32S, Q39R, A52V, G55R, H91Q, P96M
notes: as for B1

EC50 (read off the curve) [6]: ~5 nM
EC50 (read off the curve) [7]: ~5 nM
B4: 1.12.1(rWT) (antibody, human IgG2, kappa)
heavy: QVQLQESGPGLVKPSQTLSLTCTVSGGSMSSGEYYWNWIRQHPGKGLEWIGYIYYSGSTYYNPSLKSRVTISVDTSKNQFSLKLSSVTAADTAVYYCARESVAGFDYWGQGTLVTVSSASTKGPSVFPLAPCSRSTSESTAALGCLVKDYFPEPVTVSWNSGALTSGVHTFPAVLQSSGLYSLSSVVTVPSSNFGTQTYTCNVDHKPSNTKVDKTVERKCCVECPPCPAPPVAGPSVFLFPPKPKDTLMISRTPEVTCVVVDVSHEDPEVQFNWYVDGVEVHNAKTKPREEQFNSTFRVVSVLTVVHQDWLNGKEYKCKVSNKGLPAPIEKTISKTKGQPREPQVYTLPPSREEMTKNQVSLTCLVKGFYPSDIAVEWESNGQPENNYKTTPPMLDSDGSFFLYSKLTVDKSRWQQGNVFSCSVMHEALHNHYTQKSLSLSPGK
light: not shown
notes: mAb 1.12.1 expressed as a recombinant mAb; also called recombinant wild-type mAb 1.12.1

Kd [4]: 2 nM
Kd [8]: 2 nM
B5: 1.12.1 (antibody, human IgG2, kappa)
heavy: B4 heavy
light: not shown
notes: Hybridoma-derived human IgG2 kappa antibody; also called mAb 1.12.1 isolated from the hybridoma; hybridoma LN 15916, ATCC PTA-6808

Kd [8]: 3.8 nM
EC50 (read off the curve) [6]: ~3 nM
EC50 (read off the curve) [7]: ~5 nM
B6: 1.12.1(D19A) (antibody, human IgG2, kappa)
heavy: B4 heavy
light: not shown
notes: Recombinant 1.12.1 with the single light-chain mutation D19A

ID1 Taqman IC50 [3]: 75 nM
pSmad1 Western IC50 nM [3]: 15 nM
Kd [4]: 3 nM
Kd [5]: 5.6 nM
Avidity [1]: 62 pM
Avidity [2]: 18 pM
koff [2]: 1.1e-05 s⁻¹
B7: 1.162.1 (antibody, human IgG2, V domains shown)
VH: QVQLQESGPGLVKPSQTLSLICTVSGGSISSGEYYWSWIRQHPGKGLEWIGYIYYSGSTYYNPSLKSRLTISVDTSKNQFSLKLSSVTAADTAVYYCAREGIGAFDIWGQGTMVTVSS
VL: B2 VL with N2I, N32S, G55R, S77I, E80D, H91R
notes: as for B1

ID1 Taqman IC50 [3]: 14 nM
pSmad1 Western IC50 nM [3]: 15 nM
Kd [5]: 14 nM
B8: 4.58.1 (antibody, human IgG2, V domains shown)
VH: B1 VH with D74A, S101A, D103E, M105F, V107Y, T113L
VL: B2 VL with N2I, S31T, N32T, G55R, V86L, S94T, P96S
notes: as for B1

ID1 Taqman IC50 [3]: 100 nM
pSmad1 Western IC50 nM [3]: 87 nM
B9: 1.13.1 (antibody, human IgG2, V domains shown)
VH: QVHLQESGPGLVKPSETLSLTCTVSGGSVSSGDYYWNWIRQPPGKGLEWIGYIYYSGSTNYNPSLKSRITISIDTSKNQFSLKLNSVTAADTALYYCARESVAAFDYWGQGTLVTVSS
VL: B2 VL with N2I, V29I, N32R, K40E, G55R

binding result [9]: binds
B10: 1.11.1 (antibody, human IgG2, V domains shown)
VH: QVQLVESGGGVVQPGRSLRLSCAASGFTFSSHGMYWVRQAPGKGLEWVAAIWYDGSNKYYADSVKGRFTISRDNSKNTLYLQMNSLRAEDTAVYYCARDQEQWPDVFDIWGQGTMVTVSS
VL: DIQMTQSPSSLSASVGDRVTITCRASQGIRNYLAWFQQKPGKAPKSLIYGASSLQSGVPSKFSGSGSGTDFTLTISSLQPEDFATYYCQQYNSYPLTFGGGTKVEIK
notes: as for B1

ID1 Taqman IC50 [3]: 87 nM
pSmad1 Western IC50 nM [3]: 52 nM
Kd [5]: 9.3 nM
Avidity [1]: 150 pM
Avidity [2]: 100 pM
B11: 4.38.1 (antibody, human IgG2, V domains shown)
VH: QVQLQESGPGLVKPSQTLSLTCTVSGGSISSGDYYWSWIRQHPGKGLEWIGYIYYSGSTYYNPSLKSRVTISIDTSKNQFSLKLSSVTAADTAVYYCARERDYGGGFDYWGQGTLVTVSS
VL: not shown
notes: as for B1

ID1 Taqman IC50 [3]: 58 nM
pSmad1 Western IC50 nM [3]: 17 nM
B12: 1.183.1 (antibody, human IgG2, V domains shown)
VH: QVQLQESGPGLVKPSETLSLTCTVSGGSISSYYWSWIRQPPGKGLEWIGYIYYSGSTNYNPSLKSRVTISVDTSKNQFSLKLSSVTAADTAVYYCAREDDSSGCPYFDYWGQGTLVTASS
VL: EIVMTQSPATLSVSPGERATLSCRASQSVSSNLAWYQQKPGQAPRVLIYGASTRATGIPVRFSGSGSGTEFTLTISSLQSEDFAVYYCQQYNNWPFTFGPGTKVDIK
